{"source": "the nanobody polyreactivity screen of Harvey et al. (2022)"}
{"experiment": "yeast display, Sf9 membrane polyspecificity reagent, FACS + sequencing; frameworks hold sequencing errors", "how_it_was_run": "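After 36–48 hours of galactose induction, yeast (Saccharomyces cerevisiae BJ5465) displaying a synthetic nanobody library were stained at 4 °C for 1 hour with 10% biotinylated, detergent-solubilized Sf9 membrane reagent. Streptavidin microbeads enriched the stained cells before FACS sorting into low and high (top ~1%) gates on anti-HA and streptavidin fluorescence. Each clone's polyreactivity label reflects its gate of origin.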"}
{"sequence": "QVHLVESGGGLVQAGGSLRLSCAASGSIFFNNAMGWYRQPPGKERELVAAINYGNGSTYYADSVKGRFTISRDNAKNTVYLQMNSLKPEDTAVYYCNADYTGTRSDSVTPEYEYWGQGTQVTVSS", "polyreactivity (PSR sort gate)": "low polyreactivity"}
{"sequence": "QVHLVESGGGLVQAGGSLRLSCAASGSIFRGYAMGWYRQAPGRERELVAAISRSGGSTYYADSVKGRFTISRDNAKNTVYLQRNSLKPEDTAGYYCAALLRGRYRMYYWGQGTQVTVSS", "polyreactivity (PSR sort gate)": "high polyreactivity"}
{"sequence": "QVHLVESGGGLVQAGGSLRLSCAASGSIFSGNAMGWYRQAPGKERELVAAITSSGGNTYYADSVKGRFTISRDNAKNTVYLQMNSLKPADTAVYYCAADGVYWRWYLYTFWMDYWGQGTQVTVSS", "polyreactivity (PSR sort gate)": "low polyreactivity"}
{"sequence": "QVHLVESGGGLVQAGGSLRLSCAASGSIFTGYAMGWYRQAPGKERELVAGISWGGTSTYYADSVKGRFTISRDNAKNTVYLQMNSLKPEDTAVYYCAAKPYYFYGMDYWGQGTQVTVSS", "polyreactivity (PSR sort gate)": "high polyreactivity"}
{"sequence": "QVHLVESGGGLVQAGGSLRLSCAASGSIFTPYAMGWYRQAPGKERELVATISWSGGRTYYADSVKGRFTISRDNAKNTVYLQMNSLKPEDTAVYYCAARGYSSEYDYWGQGTQVTVSS", "polyreactivity (PSR sort gate)": "high polyreactivity"}
{"sequence": "QVHLVESGGGLVQAGGSLRLSCAASGSIFTVYTMGWYRQAHGKERELVAAINSRGGTTYYADSVKGRFTISRDYAKNTVYLQMNSLKPEDTAVYYCAAKQRPKSYGPVHYYWGQGTQVTVSS", "polyreactivity (PSR sort gate)": "high polyreactivity"}
{"sequence": "QVHLVESGGGLVQAGGSLRLSCAASGSIFVHYAMGWYRQAPGKERELVATISSSGGSTYYADSVKGRFTISRDNAKNTVYLQMKSLKPEDTAVYYCAADWTLDPSYGYYADDYWGQGTQVTVSS", "polyreactivity (PSR sort gate)": "low polyreactivity"}
{"sequence": "QVHLVESGGGLVQAGGSLRLSCAASGSIFWANAMGWYSQAPGKERELVAAINFRATITYYADSVKGRFTISRDIAKNTFYLQMISLKPEDTAVYYCAGDSYECWYDYWGQGTEVTVSS", "polyreactivity (PSR sort gate)": "high polyreactivity"}
{"sequence": "QVHLVESGGGLVQAGGSLRLSCAASGSIFYGNAMGWDRQATGKERELVAGISWYGGSTYYADSVKGRFTISRDNAKNTVYLQMNSLKPEDTAVYYCATVADEPRSYSGYEEYDYWGQGTQVTVSS", "polyreactivity (PSR sort gate)": "low polyreactivity"}
{"sequence": "QVHLVESGGGLVQAGGSLRLSCAASGSIFYRNAMGWYRPAPGKERELVAAISSDGSTNYADSVKGRFTISRDNEKNTVYLQMNSLKPEDTAVYYCAAPWTQILDYWGQGNQVTVSS", "polyreactivity (PSR sort gate)": "low polyreactivity"}
{"sequence": "QVHLVESGGGLVQAGGSLRLSCAASGSIFYSNAMGWYRQAPGKERELVAAITRGGSTHYADSVKGRFTISRDNAKNTVYLQMNSLKPEDTAVYYCNKDLNFAKYISSILYDYWGQGTQVSVSS", "polyreactivity (PSR sort gate)": "low polyreactivity"}
{"sequence": "QVHLVESGGGLVQAGGSLRLSCAASGSIFYYNTMGWYRQAPGKERELVAGISWGGGRTYYADSVKGRFTISRDNAKNTVYLQMNSLKPEDTAVYYCNARHRRLPSNGGYDYWGKGTQVTVSS", "polyreactivity (PSR sort gate)": "high polyreactivity"}
{"sequence": "QVHLVESGGGLVQAGGSLRLSCAASGSIIKYYAIGWYRQAPGKERELVAAISWRGGRTYADSVKGRFTISRDNAKNTVYIQMNSLKPEDTAVYYCATSSRYRYWHRYDYWGQGTQVTVSS", "polyreactivity (PSR sort gate)": "high polyreactivity"}
{"sequence": "QVHLVESGGGLVQAGGSLRLSCAASGSILLINAMGWYRQAPGKERELVAAIRTGGSTYYADSVKGRFTISRDNAKNTVSLQMNSLKPEDTAVYYCAVRTGRRWWKFDYWGQGTQVTVSS", "polyreactivity (PSR sort gate)": "low polyreactivity"}
{"sequence": "QVHLVESGGGLVQAGGSLRLSCAASGSILPFNAMGWYRQAPGKDRELVAAIDGSGGDTYYADSVKGRFTISRDNAKNTVYLHMNSLKPEDTAVYYCAAEYYYTSQLAKYHYGYEYWGQGTQVTVSS", "polyreactivity (PSR sort gate)": "high polyreactivity"}
{"sequence": "QVHLVESGGGLVQAGGSLRLSCAASGSILQRNAMGWYRQAPGKERELVASITFSAGRTYYADSVKGRFTISRDNAKNTVYLQMKSLKPEDTAVYYCAADPYSYGARGARGDYWGQGTQVSVSS", "polyreactivity (PSR sort gate)": "low polyreactivity"}
{"sequence": "QVHLVESGGGLVQAGGSLRLSCAASGSISGLYAMGWYRQAPGKETELVAAISFSAGSTYYADSVKGRFTISRDNAKNTVYFQMNSLKPEDTAVYYCAADGQYGGVPNTSEWTFDYWGQGTQVTVSS", "polyreactivity (PSR sort gate)": "low polyreactivity"}
{"sequence": "QVHLVESGGGLVQAGGSLRLSCAASGSISVWYVIVWYRQAPGKERELVAAITRSGGSTFYADSVKGRFTISRDNAKNTVYLQMNSLKPEDTAVYYCAASFRDDFPQRLDYWGQGTQVTVSS", "polyreactivity (PSR sort gate)": "low polyreactivity"}
{"sequence": "QVHLVESGGGLVQAGGSLRLSCAASGSLSVRNVMGWYSQAPGKERELVATIRRSGGSTSYADSVKGRFTISRDNSKNSVYLQMNSLKPEDTAVYYCAAVVYTTYRRYDYWGQGTQVNVSS", "polyreactivity (PSR sort gate)": "low polyreactivity"}
{"sequence": "QVHLVESGGGLVQAGGSLRLSCAASGSNFKGNAMGWYRQAPGKERELVAAINRSGTSTYYADSVKGRFTISRDNAKKTVYLQMNSLKPEDTAVYYCAKKYFGHRFDYWGQGTQVTVSS", "polyreactivity (PSR sort gate)": "high polyreactivity"}
{"sequence": "QVHLVESGGGLVQAGGSLRLSCAASGSTFGYNAMGWYRQAPGKVWELVAVISYSGGSPYYADSVKGRFTLSRDNAKNTVSLQMNSLKPADTAVYYCAKRALTSTRYRVKYDSWGQGTQVTVAS", "polyreactivity (PSR sort gate)": "high polyreactivity"}
{"sequence": "QVHLVESGGGLVQAGGSLRLSCAASGSTFLGYAMGWYRQAPGKERELVAAISWSGGTTYYADSVKGRFTISRDNAKNTVYFQMISQKPEDTAVYYCNVYTRGRYEYWGQGTQVTVSS", "polyreactivity (PSR sort gate)": "low polyreactivity"}
{"sequence": "QVHLVESGGGLVQAGGSLRLSCAASGSTFPVNAMGWYRQAPGKERELVAAIRSSTGRTYYADSVKGRFTISRDNAKNSVYLQMNSLKPEDTAVYNFAAEGDYYDFISPPLDYWGQGTQVTVSS", "polyreactivity (PSR sort gate)": "low polyreactivity"}
{"sequence": "QVHLVESGGGLVQAGGSLRLSCAASGSTFRRYARAWYRQAPGKERELVAAITWRGGSTYYADSVKGRFTISRDNAKNTVYLQMNSLKPEDNAVYYCAADRYPYQYNYWGQGTLVTVSS", "polyreactivity (PSR sort gate)": "high polyreactivity"}
{"sequence": "QVHLVESGGGLVQAGGSLRLSCAASGSTFRVYAMGWYRQAPGKERELVARISITGGTTRYADSVKGRFTISRDNAKNTVYLQMNSLKPEDTAVYYCNADYDWYYWYLYKYPFDYWGQGTQVTVSS", "polyreactivity (PSR sort gate)": "low polyreactivity"}
{"sequence": "QVHLVESGGGLVQAGGSLRLSCAASGSTFSGYAMGWYRQAPGKERELVATITRRGGNTYYADSLKGRFTISRDNAKNTVYLQMNSLKPEDTAVYYCAKDGRVHSPYDYWGQGTQVTVSS", "polyreactivity (PSR sort gate)": "low polyreactivity"}
{"sequence": "QVHLVESGGGLVQAGGSLRLSCAASGSTFVGYAMGWYRQAPGKERELVAAISGGDSTYYADSVKGRFTISRDNAKNTVYLQMNSLKPEDTAVYYCNADYGDTFEYDYWGQGTQVTVSS", "polyreactivity (PSR sort gate)": "low polyreactivity"}
{"sequence": "QVHLVESGGGLVQAGGSLRLSCAASGSTFYTYVMGWYRQAPGKERELVAAISEDDGNTYYADSVKGRFTISRDNAKNTVYLQMNSLKPEDTAVYYCAADWEDDLAYSAYDYWGQGTQVTVSS", "polyreactivity (PSR sort gate)": "high polyreactivity"}
{"sequence": "QVHLVESGGGLVQAGGSLRLSCAASGSTLYTYGMGWYRQAPGKERELVASISWRAARTYYADSVKGRFTISRDNAKNTVYLQMNSLKPEDTAVYYCNADYYIAPYDSWGQGTQVTVSP", "polyreactivity (PSR sort gate)": "low polyreactivity"}
{"sequence": "QVHLVESGGGLVQAGGSLRLSCAASGYIFDIYAMGWYRQAPGKERELVAVITRSGGGTYYADSVKGRFTISRDNAKNTVYLQMNSLKPEDTAVYYCAAESYVYGGSDYDYWGQGTQVTVSS", "polyreactivity (PSR sort gate)": "low polyreactivity"}
{"sequence": "QVHLVESGGGLVQAGGSLRLSCAASGYIFQYYAMGWSRQAPGKERELVAAITGGGSTKYADSVKGRFTISRDNAKNTVYLHMNSLKPEDTAVYYCAASLWYRISKYDYWGLGTQVTVSS", "polyreactivity (PSR sort gate)": "high polyreactivity"}
{"sequence": "QVHLVESGGGLVQAGGSLRLSCAASGYTDYAMGWYRKAPGKERELVATITSGDNTNYADSVKGRFTSSRDNAKNTVYLQMNSLKAEDTAVYYCAAVYGLHYGIDYWGQGTQVNVSS", "polyreactivity (PSR sort gate)": "low polyreactivity"}
{"sequence": "QVHLVESGGGLVQAGGSLRLSCAATGRTFIIYTMAWYRQAPGKESEFVAAITRSGGGTYYADSVKGRFTISRDNAKNTVYLQMNSQKPEDTAVYYCAAVRFYDQAYDYWGQGTQVTVSS", "polyreactivity (PSR sort gate)": "low polyreactivity"}
{"sequence": "QVHLVESGGGLVQAGGSLRLSCAAYGRSFSSNAMGWYGQAPGKERELVAAISSSGAGTYYADSVKGRFTISRDNAKNTVYLQMNRLKPEDTAVYYCAARANSYHSFTSHYDYWGQGTQVTLSS", "polyreactivity (PSR sort gate)": "low polyreactivity"}
{"sequence": "QVHLVESGGGLVQAGGSLRLSCADSGRIFYQYAMGWYRQQPGKESELVARITSGGGTNYADSVKGRFSISRDNAKYTVYLQMNSLKPEDTAVYYCAAGPWYYSYPDYYWGQGTQVTVSS", "polyreactivity (PSR sort gate)": "high polyreactivity"}
{"sequence": "QVHLVESGGGLVQAGGSLRLSCADYGRTFSRYAMGWYRQAPGKERELVATINSRAGITNYPDTVKGRFTISRDNAKNTVYLQMTSLKPEDTAVYYCNRGRPGGPSWYHFDYWGQGSQVTVSS", "polyreactivity (PSR sort gate)": "high polyreactivity"}
{"sequence": "QVHLVESGGGLVQAGGSLRLSCASSGGTFPPNTMGWYRQAPGKEREFVAAITWRGSSTYYADSVKGRFTISRDNAKITFFLQMNSLKPEDSAVDYCAARRAYERMGFWGQGTQVTVSS", "polyreactivity (PSR sort gate)": "high polyreactivity"}
{"sequence": "QVHLVESGGGLVQAGGSLRLSCDASGSTFLSNAMGWYRQAPGKERELVAAITTSGTSTFYADSVKGRFTISRDTAKNTVYLQMNSLKPEDTAVYCAKDYLPYLHFVAPSTGDYDYWGQGTQVTVSS", "polyreactivity (PSR sort gate)": "low polyreactivity"}
{"sequence": "QVHLVESGGGLVQAGGSLRLSCDATGFTFQEYAMGWYRQAPGKERELVAAISTSGDSTYYADSVKGRFTISRDNAKNTVYLQMKSLKPEDNAVYYCATAYEDLDAGVLYDYWGQGTQVTVSS", "polyreactivity (PSR sort gate)": "low polyreactivity"}
{"sequence": "QVHLVESGGGLVQAGGSLRLSCHASGSNFYSYGLGSYRQAPGKERELVAAITSSGGGTYYADSVKGGFTISRDNAKNTVYLQMHSLKPEDTAVYYCNADHFSDNSSTQYDYWGQGTQVTVSS", "polyreactivity (PSR sort gate)": "low polyreactivity"}
{"sequence": "QVHLVESGGGLVQAGGSLRLSCPASGRIFDWYAMGCYRQAPGKEREFVAVIDSSGGTYYADSVKGRFTISRDNAKNTVYLQMNSLKPEDTAVYYCAAEYGWWSFPEYDYWGQGTQVTVSS", "polyreactivity (PSR sort gate)": "low polyreactivity"}
{"sequence": "QVHLVESGGGLVQAGGSLRLSCSASGRTFPKYAMGWYRQAPGKERELVAAINKSGGSRYYADSVKGRFTISRDYAKNTVYLQMNSLKPEDTAVYYCAADWRGWSFFRGDDYWGQGTQVTVSS", "polyreactivity (PSR sort gate)": "high polyreactivity"}
{"sequence": "QVHLVESGGGLVQAGGSLRLSCSASGSIFRLNAMGWYRQAPGKERELVAAITWSDSSTYYADSVKGRFTISRDNAKNTVYLQMNSLKPVDTAVYYCAADPQSYKYDYWGQGTQVTVSS", "polyreactivity (PSR sort gate)": "low polyreactivity"}
